Where no end group is shown, it is not given here. [ ]: non-standard residue; d: D form. The star is where a group is joined. FITC = O=C1OC2(c3ccc(O)cc3Oc3cc(O)ccc32)c2ccc(NC(=S)*)cc21; pT = C[C@@H](OP(=O)(O)O)[C@H](N)C(=O)O; pS = N[C@@H](COP(=O)(O)O)C(=O)O; Aβ = not defined here

In the first assay the target is MpIBP_RIII1-4 (Marinomonas primoryensis ice-binding protein, Region III domains 1-4), truncated construct ending at N507 (Marinomonas primoryensis). Nature of the assay: fluorescence polarisation.
On to {FITC}-AGWTD [FITC-AGWTD], for which the EC50 stood at 23 nM. Molecule {FITC-Aβ}-GPDD (reading uncertain; also: printed as FITC-AβGPDD) [FITC-AβGPDD] registered a fold by which FITC-AβGPDSD binds stronger than FITC-AβGPDD of 20 fold. Consider {FITC-Aβ}-DSTPD (reading uncertain; also: printed as FITC-AβDSTPD) [FITC-AβDSTPD], for which the EC50 turned out to be 27000 nM and the affinity was determined as 26 µM.

Molecule {FITC-Aβ}-GPDSN (reading uncertain; also: printed as FITC-AβGPDSN) [FITC-AβGPDSN] gave an EC50 of 270 nM. With {FITC}-AGATD [FITC-AGATD], the EC50 stood at 72 nM. Still for that read-out and setting: with {FITC}-AGCTD [FITC-AGCTD] the figure was 23 nM; with {FITC}-RHKKLMFK[pT]EGPDSD-OH [FITC-RHKKLMFK(pT)EGPDSD], 690 nM. On the same count and under the same terms, then {FITC}-AGYTD [FITC-AGYTD], with 29 nM; and {FITC}-AGYTS [FITC-AGYTS], with 30 nM. {FITC}-IKARAS[pS]SPVILVGTHLD-OH [FITC-IKARAS(pS)…] registered an EC50 of 2700 nM. In turn, {FITC}-AGAGF [FITC-AGAGF] displayed an EC50 of 7200 nM. {FITC}-AGAGD [FITC-AGAGD] displayed an EC50 of 3200 nM. {FITC}-AGAGY [FITC-AGAGY] gave an EC50 of 4600 nM. The same measure, in the same setting: then {FITC-Aβ}-DSTD (reading uncertain; also: printed as FITC-AβDSTD) [FITC-AβDSTD], with 110 nM; and {FITC}-AGAGI [FITC-AGAGI], with 4400 nM. For the molecule {FITC-Aβ}-GPDSD (reading uncertain; also: printed as FITC-AβGPDSD) [FITC-AβGPDSD], the EC50 turned out to be 160 nM.

The target is the same in another assay. Put plainly: fluorescence polarisation. This is another data set of the same source.
In the case of {FITC}-AGAPD [FITC-AGAPD], the EC50 was 4600 nM.

Molecule {FITC}-AGAYD [FITC-AGAYD] came in with an EC50 of 170 nM. The same measure, in the same setting: with {FITC}-AGATD [FITC-AGATD] the figure was 89 nM. On the same count and under the same terms, with {FITC}-AGASD [FITC-AGASD] the figure was 310 nM; with {FITC}-AGAGD [FITC-AGAGD], 1500 nM. On the same count and under the same terms, then {FITC}-AGAFD [FITC-AGAFD], with 180 nM.

The target is the same in the next assay. Put plainly: ITC.
With AGYTD [AGYTD (unlabelled peptide)], the Kd was determined as 67 nM and the stoichiometry N is 1. The molecule AGATD [AGATD (unlabelled peptide)] registered a Kd of 86 nM and a stoichiometry N of 1. Consider AGYTS [AGYTS (unlabelled peptide)], for which the Kd was found to be 59 nM and the stoichiometry N was 1. The corresponding values for AGAGD [AGAGD (unlabelled peptide)] are 1900 nM and 1.

The values above are taken from publication doi:10.1101/2020.11.18.389114.
